According to patent US20260365709 (published 2026):
Substitutions are numbered along the chain they refer to.

T1: mIL10RaFc (Sino 51298-M02H) (mouse, UniProt Q61727)
T1 chain: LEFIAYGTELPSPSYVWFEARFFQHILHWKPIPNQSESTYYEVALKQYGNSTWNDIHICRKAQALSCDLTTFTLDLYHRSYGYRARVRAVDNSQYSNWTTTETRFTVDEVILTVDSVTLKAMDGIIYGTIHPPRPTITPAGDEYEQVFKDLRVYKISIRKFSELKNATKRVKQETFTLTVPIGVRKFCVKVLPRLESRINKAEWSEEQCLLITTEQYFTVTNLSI

T2: hIL10RaFc (R&D 9044-RI) (human, UniProt Q13651)
T2 chain: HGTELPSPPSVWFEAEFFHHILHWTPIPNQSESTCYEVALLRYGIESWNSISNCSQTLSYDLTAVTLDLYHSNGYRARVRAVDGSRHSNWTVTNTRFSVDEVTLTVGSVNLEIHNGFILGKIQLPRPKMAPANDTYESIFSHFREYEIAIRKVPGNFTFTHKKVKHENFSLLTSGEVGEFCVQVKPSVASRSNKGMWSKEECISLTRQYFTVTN

B1: DR2806 (designed binder)
chain: GKSKAVEQVKSIFNKLQDQGVYKAMNEFDIFINAIEAYMMIKMKSSREDNNCTHFNVGLSHMLLELRTAFSQVKTFFQTKDQLDNILLTDSLMQDFKGYLGCQALSEMIQFYLVEVLPQAEKHGPEIKEHLNSLGEILKTLRMRLRRCHRFLPCEN
B2: DR2820 (designed binder)
chain: GKCKAVEQVKSDFNKLQDQGVYKAMNEFDIFINAIEAYMMIKMKSQYSREDNNCTHFPVGQSHMLLELRTAFSQVKTFFQTKDQLDNILLTDSLMQCFKGYLGCQALSEMIQFYLVEVMPQAEKHGPEIKEHLNSLGEKLKTLRMRLRRCHRFLPCEN
B3: DR2823 (designed binder)
chain: B1 chain with I12D, N56P, L59Q, L117M, I137K
B4: DR2807 (designed binder)
chain: B1 chain with N56P, L59Q, L117M, I137K
B5: DR2809 (designed binder)
chain: B1 chain with F55A, N56P, L59Q, I137K
B6: DR2808 (designed binder)
chain: B1 chain with F55A, N56P, L59Q
B7: WC161_AA (mIL10 WT inverted monomer) (designed binder)
chain: NKSKAVEQVKSDFNKLQDQGVYKAMNEFDIFINAIEAYMMIKMKSSRGQYSREDNNCTHFPVGQSHMLLELRTAFSQVKTFFQTKDQLDNILLTDSLMQDFKGYLGCQALSEMIQFYLVEVMPQAEKHGPEIKEHLNSLGEKLKTLRMRLRRCHRFLPCENGGSHHHHHHHH
B8: DR2804 (designed binder)
chain: B1 chain with F55A, N56P, L59M, N132I
B9: DR2817 (designed binder)
chain: B1 chain with I12D, F55A, N56P, L59Q, I137K
B10: DR2821 (designed binder)
chain: B2 chain with C3S, V6C, C97D, E109C
B11: DR2813 (designed binder)
chain: B1 chain with I12D, N56W, G58A, L59M, F70A, N132I
B12: DR2802 (designed binder)
chain: B1 chain with N56M, G58A, L59M, I137K
B13: DR2803 (designed binder)
chain: B1 chain with F55A, N56P, G58A, L59F, S60W
B14: DR2816 (designed binder)
chain: B1 chain with I12D, F55A, N56P, L59Q
B15: DR2805 (designed binder)
chain: B1 chain with F31V, F55A, N56P, G58M, L59F
B16: DR2818 (designed binder)
chain: B2 chain with C3S, A5C, L94C, C97D
B17: DR2819 (designed binder)
chain: B2 chain with C3S, A5C
B18: DR2822 (designed binder)
chain: GKSKAVEQVKSDFNKLQDQGVYKAMNEFDIFINAIEAYMMIKMKSREDNNCTHFPVGQSHMLLELRTAFSQVKTFFQTKDQLDNILLTDSLMQDFKGYLGCQALSEMIQFYLVEVMPQAEKHGPEIKEHLNSLGEKLKTLRMRLRRCHRFLPCEN
B19: DR2815 (designed binder)
chain: B1 chain with I12D, G58V, L59M, I137K
B20: hIL10 WT (protein)
chain: SPGQGTQSENSCTHFPGNLPNMLRDLRDAFSRVKTFFQMKDQLDNLLLKESLLEDFKGYLGCQALSEMIQFYLEEVMPQAENQDPDIKAHVNSLGENLKTLRLRLRRCHRFLPCENKSKAVEQVKNAFNKLQEKGIYKAMSEFDIFINYIEAYMTMKIRN
modifications: wild-type human IL10, homodimer; exact construct/tag not stated
B21: h_DR1060_AA (hIL10 WT inverted monomer) (designed binder)
chain: KSKAVEQVKNAFNKLQEKGIYKAMSEFDIFINYIEAYMTMKIRNSPGQGTQSENSCTHFPGNLPNMLRDLRDAFSRVKTFFQMKDQLDNLLLKESLLEDFKGYLGCQALSEMIQFYLEEVMPQAENQDPDIKAHVNSLGENLKTLRLRLRRCHRFLPCENGGSHHHHHHHH
B22: mIL10 WT (protein)
chain: SRGQYSREDNNCTHFPVGQSHMLLELRTAFSQVKTFFQTKDQLDNILLTDSLMQDFKGYLGCQALSEMIQFYLVEVMPQAEKHGPEIKEHLNSLGEKLKTLRMRLRRCHRFLPCENKSKAVEQVKSDFNKLQDQGVYKAMNEFDIFINCIEAYMMIKMKS
modifications: wild-type mouse IL10, homodimer; exact construct/tag not stated

Target: T1, mIL10RaFc (Sino 51298-M02H)
Assay: SPR

Binder | Kd
B1 | 2.7 nM
B2 | 3.37 nM
B3 | 5.2 nM
B4 | 144 nM
B5 | 17.3 nM
B6 | 1.35 nM
B7 | 5.27 nM
B8 | 1.59 nM
B9 | 1.65 nM
B10 | 4.49 nM
B11 | 39.9 nM
B12 | 2.29 nM
B13 | 1.7 nM
B14 | 1.61 nM
B15 | 30.9 nM
B16 | 2.34 nM
B17 | 2.71 nM
B18 | 6.42 nM
B19 | 1 nM

Target: T2, hIL10RaFc (R&D 9044-RI)
Assay: SPR

Binder | Kd
B20 | 0.06 nM
B21 | 0.38 nM

Target: T1, mIL10RaFc (Sino 51298-M02H)
Assay: SPR
Remark: another data set of the same source

Binder | Kd
B7 | 6.54 nM
B22 | 0.81 nM
